# Assay results taken from patent publication US20220411491A1 (Hoffmann-La Roche, published 2022).
# Residue numbers refer to the chain shown, from its start.
# B1: 10B10-TCB (bispecific antibody, human IgG1, kappa, L234A L235A)
# light 1: DIQLTQSPHSLSASLGETVSIECLASEGISNYLAWFHQKPGKSPQLLIYYASSLQDGVPSRFSGSGSGTQYSLKISNMQPEDEGVYYCQQGYKYPLTFGSGTKLEIKRTVAAPSVFIFPPSDRKLKSGTASVVCLLNNFYPREAKVQWKVDNALQSGNSQESVTEQDSKDSTYSLSSTLTLSKADYEKHKVYACEVTHQGLSSPVTKSFNRGEC
# light 2: EVQLLESGGGLVQPGGSLRLSCAASGFTFSTYAMNWVRQAPGKGLEWVSRIRSKYNNYATYYADSVKGRFTISRDDSKNTLYLQMNSLRAEDTAVYYCVRHGNFGNSYVSWFAYWGQGTLVTVSSASVAAPSVFIFPPSDEQLKSGTASVVCLLNNFYPREAKVQWKVDNALQSGNSQESVTEQDSKDSTYSLSSTLTLSKADYEKHKVYACEVTHQGLSSPVTKSFNRGEC
# heavy 1: EVQLVESGGGLVQPGRSMKLSCAASGFTFTNFYMAWVRQAPTKALEWVASINTGGGYTYYRDSVKGRFTVSRDNTRSTLYLQMDSLRSEETATYYCARHLTYYGRYYYFDYWGQGVMVTVSSASTKGPSVFPLAPSSKSTSGGTAALGCLVEDYFPEPVTVSWNSGALTSGVHTFPAVLQSSGLYSLSSVVTVPSSSLGTQTYICNVNHKPSNTKVDEKVEPKSCDKTHTCPPCPAPEAAGGPSVFLFPPKPKDTLMISRTPEVTCVVVDVSHEDPEVKFNWYVDGVEVHNAKTKPREEQYNSTYRVVSVLTVLHQDWLNGKEYKCKVSNKALGAPIEKTISKAKGQPREPQVCTLPPSRDELTKNQVSLSCAVKGFYPSDIAVEWESNGQPENNYKTTPPVLDSDGSFFLVSKLTVDKSRWQQGNVFSCSVMHEALHNHYTQKSLSLSPGK
# heavy 2: not shown
# B2: B72-TCB (bispecific antibody, human IgG1, kappa, L234A L235A)
# heavy 1: not shown
# light 1: B1 light 2 with L5V, S30N, S49A, D64A, T80S, R89K, A90T, V99A
# heavy 2: QVQLVQSGAEVKKPGASVKVSCKASGYSFTGYTMNWVRQAPGQGLEWMGLINPYNSDTNYAQKLQGRVTMTTDTSTSTAYMELRSLRSDDTAVYYCARVALRVALDYWGQGTLVTVSSASTKGPSVFPLAPSSKSTSGGTAALGCLVEDYFPEPVTVSWNSGALTSGVHTFPAVLQSSGLYSLSSVVTVPSSSLGTQTYICNVNHKPSNTKVDEKVEPKSCDKTHTCPPCPAPEAAGGPSVFLFPPKPKDTLMISRTPEVTCVVVDVSHEDPEVKFNWYVDGVEVHNAKTKPREEQYNSTYRVVSVLTVLHQDWLNGKEYKCKVSNKALGAPIEKTISKAKGQPREPQVCTLPPSRDELTKNQVSLSCAVKGFYPSDIAVEWESNGQPENNYKTTPPVLDSDGSFFLVSKLTVDKSRWQQGNVFSCSVMHEALHNHYTQKSLSLSPGK
# light 2: DIQMTQSPSSLSASVGDRVTITCKASQNVATHVGWYQQKPGKAPKRLIYSASYRYSGVPSRFSGSGSGTEFTLTISNLQPEDFATYYCQQYNRYPYTFGQGTKLEIKRTVAAPSVFIFPPSDRKLKSGTASVVCLLNNFYPREAKVQWKVDNALQSGNSQESVTEQDSKDSTYSLSSTLTLSKADYEKHKVYACEVTHQGLSSPVTKSFNRGEC
# B3: P1AE5706 (antibody, V domains shown)
# VH: ELQLEQSGGGLVQPGGSLTLSCAASGFTFSKYAMAWVRQAPTKGLEWVASISTGGVNTYYRDSVKARFTISRDNAKNTQYLQMDSLRSEDTATYYCATHTGDYFDYWGQGVMVTVSS
# VL: DIVLTQSPALAVSPGQRATISCRASQSVSISGINLMNWYQQKPGQQPKLLIYHASILASGIPTRFSGSGSGTDFTLTIDPVQADDIATYYCQQTRESPLTFGSGTNLEIK
# B4: P1AE5707 (antibody, V domains shown)
# VH: EVQLLESGGGLVQPGGSLRLSCAASGFTFSKYAMAWVRQAPGKGLEWVASISTGGVNTYYRDSVKARFTISRDNSKNTLYLQMNSLRAEDTAVYYCATHTGDYFDYWGQGTMVTVSS
# VL: DIVMTQSPDSLAVSLGERATINCRASQSVSISGINLMNWYQQKPGQQPKLLIYHASILASGVPDRFSGSGSGTDFTLTISSLQAEDVAVYYCQQTRESPLTFGQGTRLEIK
# B5: P1AE5709 (antibody, V domains shown)
# VH: B4 VH
# VL: EIVLTQSPGTLSLSPGERATLSCRASQSVSISGINLMNWYQQKPGQQPRLLIYHASILASGIPDRFSGSGSGTDFTLTISRLEPEDFAVYYCQQTRESPLTFGQGTRLEIK
# B6: P1AE5717 (antibody, V domains shown)
# VH: B4 VH with V2L, S75A
# VL: B5 VL with R49K
# B7: P1AE5713 (antibody, V domains shown)
# VH: B4 VH
# VL: DIQMTQSPSSLSASVGDRVTITCRASQSVSISGINLMNWYQQKPGQQPKLLIYHASILASGVPSRFSGSGSGTDFTLTISSLQPEDFATYYCQQTRESPLTFGQGTRLEIK
# B8: P1AE5721 (antibody, V domains shown)
# VH: B4 VH with R61A, A66G
# VL: B4 VL with R24K, A25S
# B9: P1AE5708 (antibody, V domains shown)
# VH: B4 VH
# VL: B4 VL with R24K, A25S
# B10: P1AE5716 (antibody, V domains shown)
# VH: B4 VH with V2L, S75A
# VL: B5 VL
# B11: P1AE5720 (antibody, V domains shown)
# VH: B4 VH with R61A, A66G
# VL: B4 VL
# B12: P1AE5710 (antibody, V domains shown)
# VH: B4 VH
# VL: B5 VL with R49K
# B13: P1AE5722 (antibody, V domains shown)
# VH: B4 VH with R61A, A66G
# VL: B5 VL
# B14: P1AE5714 (antibody, V domains shown)
# VH: B4 VH with V2L, S75A
# VL: B4 VL
# B15: P1AE5723 (antibody, V domains shown)
# VH: B4 VH with R61A, A66G
# VL: B5 VL with R49K
# B16: P1AE5726 (antibody, V domains shown)
# VH: B4 VH with V2L, R61A, A66G, S75A
# VL: B4 VL
# B17: P1AE5715 (antibody, V domains shown)
# VH: B4 VH with V2L, S75A
# VL: B4 VL with R24K, A25S
# B18: P1AE5727 (antibody, V domains shown)
# VH: B4 VH with V2L, R61A, A66G, S75A
# VL: B4 VL with R24K, A25S
# Target: T1, human GPRC5D (human, UniProt Q9NZD1 1-345)
# Test: cell-based or functional assay
# T1 sequence (Q9NZD1 whole entry): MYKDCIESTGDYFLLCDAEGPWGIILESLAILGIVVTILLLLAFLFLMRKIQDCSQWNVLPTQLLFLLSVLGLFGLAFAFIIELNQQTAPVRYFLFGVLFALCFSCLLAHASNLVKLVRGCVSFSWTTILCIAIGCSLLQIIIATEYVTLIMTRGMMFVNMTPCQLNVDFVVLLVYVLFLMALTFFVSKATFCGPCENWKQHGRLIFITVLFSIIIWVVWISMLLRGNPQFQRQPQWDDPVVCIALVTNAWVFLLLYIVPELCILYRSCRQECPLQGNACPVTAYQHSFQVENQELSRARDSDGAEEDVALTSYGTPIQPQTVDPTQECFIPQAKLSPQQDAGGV
Binder,"EC50 of in vitro killing, AMO-1","EC50 of in vitro killing, EJM","EC50 of in vitro killing, L363","EC50 of in vitro killing, MOLP-2","EC50 of in vitro killing, NCI-H929","EC50 of in vitro killing, OPM-2","EC50 of in vitro killing, RPMI"
B1,0.084 nM,0.079 nM,0.034 nM,0.16 nM,0.056 nM,0.028 nM,0.965 nM
B2,0.109 nM,0.06 nM,0.058 nM,0.124 nM,0.058 nM,0.171 nM,0.193 nM

# Target: T1, human GPRC5D
# Test: cell-based or functional assay
# Remark: another data set of the same source
row,CAR-J2 EC50,Binder
1,3.9 ng/mL,B3
2,42.4 ng/mL,B4
3,59.4 ng/mL,B5
4,79.9 ng/mL,B6
5,76.9 ng/mL,B7
6,25 ng/mL,B8
7,456 ng/mL,B9
8,3.3 ng/mL,B10
9,6.3 ng/mL,B11
10,3.5 ng/mL,B12
11,4.6 ng/mL,B13
12,5.5 ng/mL,B14
13,3.7 ng/mL,B15
14,37.8 ng/mL,B16
15,3.6 ng/mL,B17
16,6.3 ng/mL,B18
